In article PMC10400029, “Bicarbonate activation of the monomeric photosystem II-PsbS/Psb27 complex” (Plant Physiology, 2023):

Key:
[1] = target: photosystem II monomer core complex (PSIIm), His6-tagged on PsbE (N. tabacum | N. tabacum (endogenous in tobacco thylakoids)) (UniProt P69384)
[2] = target: T1, PSIIm-S/27 (monomeric photosystem II-PsbS/Psb27 complex) (Nicotiana tabacum, UniProt P69556+P69686); test: flash-induced chlorophyll fluorescence decay; format: biochemical; conditions: 10 µM DCMU, 15 °C (also 20 °C), pH 6.5; QB site, blocks electron transfer from QA
T1 construct: gene psbA; native PSII core monomer from stromal lamellae/grana margins; His6 tag at 5' end of psbE; beta-DDM; PsbS and Psb27 quasi-stoichiometric; with Photosystem II CP47 reaction center protein; Photosystem II CP43 reaction center protein; Cytochrome b559 subunit alpha; Cytochrome b559 subunit beta; Photosystem II 22 kDa protein, chloroplastic; Photosystem II repair protein PSB27, chloroplastic

PsbS, sequence (Q9SMB4 67-274): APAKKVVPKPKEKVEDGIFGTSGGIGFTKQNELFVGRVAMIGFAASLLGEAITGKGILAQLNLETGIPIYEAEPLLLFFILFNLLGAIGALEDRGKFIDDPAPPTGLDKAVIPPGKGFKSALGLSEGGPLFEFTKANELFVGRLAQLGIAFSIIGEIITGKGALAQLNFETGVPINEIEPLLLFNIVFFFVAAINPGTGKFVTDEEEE

decay of flash-induced chlorophyll fluorescence yield (QA^•− oxidation) at 15 °C, PSIIm-S/27 against PSIIm [1] | Compound | flash-induced chlorophyll fluorescence decay [2]
10 fold | Psb27 (natural protein) | –
– | CN(C)C(=O)Nc1ccc(Cl)c(Cl)c1 [DCMU] | presence of PsbS and/or Psb27 does not interfere with the DCMU binding
10 fold | PsbS (from UniProt Q9SMB4 67-274) (natural protein) | –
